Substrate in the series: BHET
The conditions noted are these: 120 h.

B1: unnamed (protein)
chain: MISTRRFPMRRLAIGLVFVFAAVLGACDWRGPTPTEQLLTASTGPFTVSTLAVPTSAGFGGGTIYYPSTTPGPFAVVSLSPGFTESQSAIAGWGPRLASHGFVTIIINTSNPFIDPSQRSTEQRQALTYVVTQGQTSGSPIFGKVDGQRRGVGGHSMGGGASLISAQADPTIRAVMPMAPWNSSASFPGITSPTLILACQNDGIAPVGSHASPMYNSIPASTKKEYISVAGGDHSCANAPTGGGSAVGKFGVAFLKRFLDNDGRYDPWTCGASKPVAGGSLSEVRSTCPF
For the protein B1, the plate clearing entry is listed as “not clears the plate”.

B2: unnamed (protein)
chain: MEMFVVPKINITFNEVAVMPSSIPVKILTGVCSLLFSVSAFSFTPSPDPDPDPGPGPCQEDCDFTRGPNPTSNYLEASSGPYNVSTIGVSRSVSGFGGGTVHYPQGTTGTMGAIAIVPGFLAGESSIAWWGPRLASHGFVVITIATNSTFDQPGSRSTQLGRALDYVINLSNSSSSPISGMVDSTRVAAMGWSMGGGGTLRLASGGRLSAAIPLAPWNTGSNSFNQITTPTLILACENDSTAPVSVHASPFYNRIPSSTDKAYLEINNGSHSCANGGGANGGLLGKYGVSWMKRFIDDDARYSQFLCGPNHQANSAISEYRDTCNY
For B2, the plate clearing result was “not clears the plate”.

B3: unnamed (protein)
chain: MKSQFRKKIKKAKLESALKVFGAFMFASAISTPAAFAINPGGNSDGNSDAGCNSNCSLGIDPTSEMLEKEQGPYVIDYIDIPKSVAGFAGGRIHFPKGLDQRLGLVVIGPGFLYTDESSSRWLGPRLASNGFVTVNINFNTVMDQPDMRANQYDKALDYVIKLSKDSSSPLYGLVDENRLGAAGWSMGGGAALKLSNMRPLKAIMPWAPWYIPAGAFSSVQTPSLIIACKGDIIAPEGIHASAFYNVIPDSTPKEYVKFAKGNHWCSNNRSNYKPLIGKLSIAWFKRFMDEDNRYEKFICDGDIKDESGVAEFRDNCGSWK
For the protein B3, the plate clearing result is “not clears the plate”.

B4: unnamed (protein)
chain: MKTIERGQRRCAVGLGLLLLAAAAHAQTNPLAKGPDPTSALLNANAGPFAIASTAVPSSVAGFGGGTVYYPTAAGSYATVAICPGFTATQSSIAWIGQRMASHGFVAMTINTNSTFDQPPSRATQLMAALRYLTNSSNSTVRARVDASRLGVAGHSMGGGGTLMAARDNTTLKAAVPLTPWSQTKSFSTVRVPTLVVGAENDTVAPVAQHSIPFYTSLPASLDKAYAELNNASHFAPNSTNTAIGRYSVAWVKRFMDNDTRYEPFLCGAPHTAFATPTVFSDYRSTCPYQ
Turning to B4, the plate clearing entry is listed as “not clears the plate”.

B5: unnamed (protein)
chain: MRETSLHRSPAPALAQACTRAASRLRFAALGLAAGLLSLAAQAQINPDQRGPNPTAASLEATAGPYAVKTSKVASQSNFGGGTVYFPDSNEGPFGVIAIAPGFTEGQSVNSWWGNRLASHGFVVITASMKNVLQYPTPRAKELVAALNYVVAQSQTSGSPYFGKVDPARRGVMGHSMGGGGTLEVVRDDPTIKAAIPLAPWDLSKVFTQVTTPTLIVACEKDAIAPVNTHASTFYDSLSASLDKAFLELKGADHFCTNTSTTAARKTVLGKYGVAWMKRFIDSDTRYAPFLCGATHEAYLSASSSVISRYKSSCPY
Consider B5, for which the plate clearing result is “not clears the plate”.

B6: unnamed (protein)
chain: MKSFLKKIYLGTGMLLVSANALSYTPAPTPNPTPITTPVECQDDCDFSRGPNPTSSSIEGVGPYSVATQNVPSSVSGFGGGTIHYPRGISGTVGAIAVVPGFVSPESSIIWWGPRLASHGFVVITIATNSIFDQPASREAQLGRALDYVINQNNSSNSPISGLVDTSRLGAMGWSMGGGGSLRLASGDRLSAVIPLAPWNEGSRGFRQLETPTLVIACERDLIAPVGVHASPFYNAIPSTTDKAFLEVNNGSHSCANGGGINGGLLSKYGVSWMKRFIDNDTRYQQFLCGPNHAANPAISEYRDTCNY
Consider B6, for which the plate clearing entry is reported as “not clears the plate”.

B7: unnamed (protein)
chain: MKNTAFRKVSVVAVTFLLSVTAFAGGGGGGGGDNSGALPLPDTCNSNCGYELGPNPSLSFVQANRGPQPTTTTNVSSSVDGFGGGTIYYPTNISQEMAAISIAPGFTNTQSAVAWWGPVLASHGFVVITIDTNGRFDQPESRSRQLDAALNHLISESDRSSSPISGLVDRNRLATMGFSMGGGGSLRSASRNRLSAAVPLAPWSVGGNNFNQIGVPTMIMACENDGTAGINQHARPFYNAIPGSTDKVYLEINDGPHNCANGNNINNATLSTYGVSWMKRFLDKDRRFNQFLCGPNHEANSRISQFRDTCLF
Turning to B7, the plate clearing result is listed as “not clears the plate”.

B8: unnamed (protein)
chain: MFPYVAVRVTEETNSRRTTLSNKAATRVSFNRQETDVKFKFVKTALVAAAMACSASAFAQYQKGPDPTTSSLERAGSFATRTLNVSSLSASGFGGGRIWYPTASGSYGVVAVSPGFTGTASTMYFWGERLSSHGFVVIVIETNTLYDQPDSRARQLTSALNYVVSQGNSRTSALYGKVDGNRRAVAGHSMGGGGTLIAAADNPSLKAAIPMAPWNLSSLSFSRIRVPTFIFSCQSDAIAPVAQHSNPFYNAIPSTTSKNLVEMRLDDHFCVMNGGGHYETLGKLGIAWVKRFVDQDTRYSKFLCGNEYNSTVRSTEVSSNRNNCPY
B8: the plate clearing result is listed as “not clears the plate”.

B9: unnamed (protein)
chain: MQRKRYNTITNRARASLLAGVGLAFFSVLAQADVLFQENFDSSLGQFTSTGSVSVTTSGARMAGSFGGTDGAITSSPISTVGFTGITLTLTRTTTGLDSGEAGIAEFSTNGSTYTVIQSLQTASGAVTLNLPATAGGQSSLRLRFRVNASSSTEYFTVDSIRLEGTPGSGGGGGGTNPYQRGPAPTTSSLDASRGPFSVGSRTVSDTQVSGYDGGTLWYPTNTSEGPFAAIAIIPGFLSSEGSIREWGPRLASWGFVVITVETLTYGDLPPSRRDQLIAAMNDVLMWSDQSGHPIYGKVDKTRQALMGWSMGGGGTLLGLQENPTRFKAGIGLAPWNSTETFTSSIRQPVLIFACESDIIAPVASHAYPFYRNMPTTNKKAFAEVNNGDHFCANDPRNNSGRLGRYGVSWMKRFLDDDTRFTQFLCGTHSTWTFSRYLSTCPY
On to B9, for which the plate clearing result is recorded as “not clears the plate”.

B10: unnamed (protein)
chain: MKTTVSRIKGLSVAAAMALASLATPALSQTSAPTSASLNATSGPLSVSTASVLLPVGFGGGTIYYPTVAGKYGVIAISPGFTATQSSIAWLGRRIATHGFVVITMNTITTLDQPDSRATQLMAALRYVLNSSGTAVRARIDSTRLAVAGHSMGGGGSLIAARDNPTLKASYPMTPWNLSTNFSTVRVPTMIIGADGDTIAPVAVHARPFYASLPSSTYKAYGELNNGTHFSPNSTNTPIGRYAVAWMKRFVDGDTRYSPFLCGAEHAAYATGWVFDRYNQNCPY
As to B10, the plate clearing result was “not clears the plate”.

B11: unnamed (protein)
chain: MKFEPLPGASPAVQPSMRFVLKRAGMATALLLSSFAAQAQVALVQENFSAGLGNFTAVGTVNTSDGSARLQGCYGCTDAVITSNAISTQGFTNLSLSFDRATAGLDTGEAGTAEFSTDGANWTIVESTRTTTTGRVSFALPASAAAQAALRLRFRINASLSSETYVVDNIQLTGTPGDPGDPDDPGANPFAKGPNPTAELLESSTGPFTYSSTVVARSAASGYGGGTIYHPTNVAGPFAAIAISPGYTGTKSTMSWWGQRLASHGFVVITIDTNSTTDQPSSRATQLMASLRQLVTFSNTSSHPIYRKVDPNRLGVMGHSMGGGGTLIAARDNPTLKAAIPLAPWSSVGNTNFSSVQVPTLVVACEADAIAPVAQHASPFYNSISGSTRKAYIEMNNGDHLCVMTGNSYTRIMGKYGVSWMKRFMDNDTRYSPFLCGAPHQADLSNAQVSEYRENCPY
For the protein B11, the plate clearing entry is reported as “clears the plate (z > 3 vs empty vector)”.

B12: unnamed (protein)
chain: MTTSNTRTLARLALAAAALLLSAAAQAQANPYQRGPDPTAASLEATAGPFAVATTKVASPSGYGGGTVYYPTTTEGPFGLIAVAPGFTETQSAISWWGPRLASHGFVVITIDTKSTLDQPASRAKQLMAALNYVVALSQTSSSPFYGKVDASRQGVMGHSMGGGGTLEAARDNPTLKAAIPLAPWNTTKNFSKVTVPTLIIACENDAIAPVSSHASPFYDSLPSSLDKAYLELKGADHFCTNSSATNKTVIGKYGVAWMKRFVDNDTRYSPFLCGAPHQADLSGSVISRYKDNCPY
B12: the plate clearing result is “not clears the plate”.

B13: unnamed (protein)
chain: MHQGIHMERKNIRRRWAIGLLGMLVLAASAHAQTNPHQKGPDPTSASLNATSGSFSVATSSVSSLGAVGFGGGTVYYPTTTGTYAVLAICPGFTATQSSIAWLGRRIATHGFVVITIDTNSTLDQPPSRATQLMAALNYVTNSSSATVRSRVDASRRGVAGHSMGGGGTLYAARDNPSLKAAVPLTAWSTLKSFSSVQVPTLVVGAESDSIASVSSHSIPFYNSLSTSLDKAYAELNGATHFAPNSTNTPIGRYSVSWVKRFMDNDTRYTPFLCGAPHQSYATSLVFSDYRSTCPY
Turning to B13, the plate clearing entry is “not clears the plate”.

B14: unnamed (protein)
chain: MKIKNRTACTTAAPSPARRRLAMASLAAAGLLCSFTAQAQVAVFQENFTSGLGSFTAAGSATNSSGAARLAGCYGCTDGAITSGPISTVGFSSLSLSFDRVTSGLDIGEGGIAEYSTNGSTWTALETTRATSNGRVTFNLPAAAAGQTGLRLRFRIDANLSSETYTVDNIQLTGISGDGGGTNPHAKGPAPTASLLEASTGPFTYASTNVSSLSADGYGGATIFHPTNVAGPFAAIAISPGYTGTKSTMTWWGERLASHGFVVAVIDTNSIYDQPYQRAPQLMAALRQLVTFSNTSSHPIYRKVDPNRLGVMGHSMGGGGTLIAARDNPTLKAAIPLAPWNTSTNFSSVSVPTLVVACESDSIAPVNSHASPFYNSLPSSTRKAFMEMNNGDHFCVMNGNDFTRIMGKYGVAWMKRFLDNDTRYSPFLCGAQHQADLSNSQLSEYRENCPY
As to B14, the plate clearing result is “clears the plate (z > 3 vs empty vector)”.

The record behind these values is the PETadex activity labels.
